From the supplement of paper PMC9170038

Tested on: MS2 coat protein
Experiment: apparent KD of MS2 coat protein; designed switch direction (-1 OFF switch, 1 ON switch): -1; higher = weaker reporter binding
In short: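 Normalised cluster fluorescence was curve-fitted, and each design's median over clusters is its apparent KD. Before this, SNAP-549-labelled MS2 coat protein was titrated from 0.7 or 1.5 nM, doubling to 3 µM, over RNA switches transcribed on Illumina chips by stalled E. coli RNA polymerase. Titrations had no input, 200 uM small-molecule ligand, or an oligonucleotide input, and steps lasted 0.8–1.5 h (lowest) to 10–20 min (highest).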

[1] = Eterna round: R95, input ligand: FMN 200 uM
[2] = Eterna round: R95, input ligand: microRNA oligo, concentration not stated
[3] = Eterna round: R95, input ligand: none
[4] = input ligand: microRNA oligo, concentration not stated

Row | Sequence | apparent KD of MS2 coat protein [1] | apparent KD of MS2 coat protein [2] | apparent KD of MS2 coat protein [3] | apparent KD of MS2 coat protein (input ligand: FMN 200 uM) | apparent KD of MS2 coat protein (input ligand: none) | apparent KD of MS2 coat protein [4]
1 | AGUACUAACACGAGAGUGUUAGUACUAUAAGCUUGUGUUACAUGAGGAUCACCCAUGUCCUCAUAAGCUCGUCUUAG [Mat - Sensor v3 - Turn-off var 2 - D67] (puzzle: Sensor v3, turn-off variant 2) | 39.3 nM | 99 nM | 44.6 nM |  |  | 
2 | UCCUCACAUGAGGAUCACCCAUGUUAGGAUAUCUUAGAGCGCGAAAGACAGUUCUUUAAGAGAAGGAACUGGGC [Exclusion 1 (MOD1 of Edarti)] (Eterna round: R97, puzzle: Exclusion 1) |  |  |  | 54 nM | 22.4 nM | 
3 | CUGCUCCGUGUAGGAUAUGCGCGCAACCAACGCGCAGAAGGACAUGAGGAUCACCCAUGUAUGUUAUUAUCACGUGAGGCGCAG [Design 33] (Eterna round: R96, puzzle: Exclusion NG 1) |  |  |  | 28.9 nM | 16.6 nM | 13.2 nM
4 | AAGACACAUGAGGAUCACCCAUGUGAGGAUAUUUGAUGCUGAGCGUAAGCUUAGUAUCAGAGAAGGUACAUAGG [Salishxclusion 10 - Jieux - Exclusion 1] (Eterna round: R97, puzzle: Exclusion 1) |  |  |  | 105 nM | 58.9 nM | 
5 | UUACCCUGAGGAUAUCCACCGUGAUACAUGAGGAUCACCCAUGUUAAUGCCUGAGUUCCCGGAGAAGGCAGAUUCC [Megrez] (Eterna round: R97, puzzle: Exclusion 5) |  |  |  | 35.3 nM | 33.4 nM | 
6 | UUAAAACGUGUAGGAUAUGCGUGGCGAAGCUAUGCAGAAGGACAUGAGGAUCACCCAUGUUCCUGCGUCCGCGUACGGAUGCAA [JL Eng1 1.21 mod 2] (Eterna round: R96, puzzle: Exclusion NG 1) |  |  |  | 18 nM | 13.1 nM | 11.9 nM
7 | CAAUUCUGAGGAUAUCGAUUUUUGUACAUGAGGAUCACCCAUGUCCUUUUUAUUUAAUCCCGAGAAGGCAGUGUAU [JR_E5_Sub097] (puzzle: Exclusion 5) |  | 23.8 nM |  |  |  | 
8 | GGGUGUGAAGGAUAUACAUGAGGAUCACCCAUGUGAGAGGAGAAUGUUGAGGAGGUUGGUAGAAGGUCAGGAGG [JR_Exclusion3_Sub010] (puzzle: Exclusion 3) |  | 79.1 nM |  |  |  | 
9 | UGUUGUUCAGGAUAUGGUGUGUUGUACAUGAGGAUCACCCAUGUGGGUCCUGGUUUGGCGUCAGAAGGGAAUGUUG [salish99_ex5_r4_118] (Eterna round: R97, puzzle: Exclusion 5) |  |  |  | 482 nM | 778 nM | 
10 | UAAUUUUUAGUAAGGAUAUCGGUCCCAAGGGACAACGAGAAGGUACAUGAGGAUCACCCAUGUGAUAAAAGAAU [Mod of Zala 5 - Jieux - Brourd's Mod of Exclusion 4] (Eterna round: R97, puzzle: Brourd's mod of Exclusion 4) |  |  |  | 204 nM | 28.8 nM | 
11 | CUUUAGUAAGGAUAUCAGCUUAGGAGGUUGGUAAUGAGAGCUGAGAAGGUACAUGAGGAUCACCCAUGUUAGUU [JL Zatite mod 9] (puzzle: Exclusion 4) |  | 17.1 nM |  |  |  | 
12 | ACAUGAGGAUCACCCAUGUCCGGCUGGUCCGUCUCGGCUGUCGAGGAUAUAGCUUGGUGUCCGCGCUAGAAGGUGGGAGCCGGU [Aenatbe mod 70] (Eterna round: R96, puzzle: Exclusion NG 3) |  |  |  | 61 nM | 56.6 nM | 40.2 nM
13 | GAAGUGCACAUGAGGAUCACCCAUGUGGGUGAGCCGUGCCUGAAGGAUAUGGCUCCCGAUGGAGACCAGAAGGUCAGUAAAUAA [Ededor] (Eterna round: R96, puzzle: Exclusion NG 3) |  |  |  | 367 nM | 1030 nM | 276 nM
14 | AGCCCUGCAGGAUAUGCCCGGGAUAACAUGAGGAUCACCCAUGUGACCGAUUGUUAAUCUGCAGAAGGGCAUGGGA [JL-EX5-4.18 ViennaUCT mod] (Eterna round: R97, puzzle: Exclusion 5) |  |  |  | 313 nM | 563 nM | 
15 | CUGCUGGAGCUUUGCUUUAGUCGUACAUGAGGAUCACCCAUGUAGGAUAUGGUAGGCUUUGCUUACUAGAAGGAUAGAGUGAUC [salish99_ExNG3_r04_605] (Eterna round: R96, puzzle: Exclusion NG 3) |  |  |  | 289 nM | 94.2 nM | 62.8 nM
16 | ACAUGAGGAUCACCCAUGUGACCACGAUGGCUGAUGUAAAGACAGGAUAUGUGUGAAUAUCUAUCACAGAAGGGUCUUGACUGG [Deportation 55 - Jieux - Exclusion NG 3] (Eterna round: R96, puzzle: Exclusion NG 3) |  |  |  | 24.1 nM | 30.6 nM | 22 nM
17 | CCGCUCCGUGUAGGAUAUUGGCGUGCUCUGCGCCGAGAAGGACAUGAGGAUCACCCAUGUAUGUUAUUAUCACGCGUGGCGCAU [Design 78] (Eterna round: R96, puzzle: Exclusion NG 1) |  |  |  | 30.6 nM | 18.6 nM | 11.5 nM

Row | Sequence | apparent KD of MS2 coat protein [1] | apparent KD of MS2 coat protein [2] | apparent KD of MS2 coat protein [3] | apparent KD of MS2 coat protein (input ligand: FMN 200 uM) | apparent KD of MS2 coat protein (input ligand: none) | apparent KD of MS2 coat protein [4]
18 | CAGAAGCAAGGAUAUACAACGGGCCACAGAGCGAGAGGGCAACAUGAGGAUCACCCAUGUAGAAGGUGCGUAAC [Timaina] (puzzle: Exclusion 2) | 47.5 nM | 97.4 nM | 74.4 nM |  |  | 
19 | UUUAAUUUUUUUUUUUUACAAGCUUUUUGCUCGUCUUAUACAUGAGGAUCACCCAUGUAAGUGGGAGAUAAAUUAUC [JMF 21] (puzzle: Sensor v3, turn-off variant 2) | 76.6 nM | 53.3 nM | 90.4 nM |  |  | 
20 | CCUUGACAUGAGGAUCACCCAUGUGAGGAUAUAGAAUACAUCAUACACUGACCUCCUUCUAGAAGGCACAUCUC [1986#2] (Eterna round: R97, puzzle: Exclusion 1) |  |  |  | 14.1 nM | 15.3 nM | 
21 | UUUGCAAGCUAUAGAUCCCACAUGAGGAUCACCCAUGUUGCUGCCGUGAGGUAGCAUUUAACUAUUGCUCGUCUUAU [JL TOV1 3.51] (Eterna round: R97, puzzle: Sensor, turn-off variant 1) |  |  |  | 190 nM | 245 nM | 
22 | AAAUCGGUAGAGGAUAUUGUACAGGAAACGGUGCAAGAAGGUUGCACAUGAGGAUCACCCAUGUUAAAUUGCGA [EX6 #51] (Eterna round: R97, puzzle: Exclusion 6) |  |  |  | 39.4 nM | 38.8 nM | 
23 | GGCCGUUUUCGGCCCGGGCGGGCCACAUGAGGAUCACCCAUGUAGGAUAUCGCCGGGUUUCCCGGCGAGAAGGGCAGGGCCCGC [first try] (Eterna round: R96, puzzle: Exclusion NG 3) |  |  |  | 13.4 nM | 17.5 nM | 13.7 nM
24 | GAUACACAUGAGGAUCACCCAUGUGAGGAUAUGCGUACGUUGUCCGUAGGCGACGUGCGCAGAAGGCGCGAGGU [Mat - Mod of JL D92] (puzzle: Exclusion 1) |  | 31.8 nM |  |  |  | 
25 | UUUUAGUGAGGAUAUACAUUUUUUUAAUUAUUUAUAAUAUUACAUGAGGAUCACCCAUGUAGAAGGCACAUUUU [My Design] (puzzle: Exclusion 2) |  | 27.4 nM |  |  |  | 
26 | CCAGCAAAUGUAAGGAUAUGCUGGUCCUUGGAUCAGCAGAAGGUACAUGAGGAUCACCCAUGUGUGAAAGCUGG [Eli bmx4 4.57] (Eterna round: R97, puzzle: Brourd's mod of Exclusion 4) |  |  |  | 674 nM | 166 nM | 
27 | CUUAGUAUCUAGGAUAUCUAGUACAUAGUAUCUAGAGAAGGAGAUACAUGAGGAUCACCCAUGUUCUGUGAUCU [Exclusion 6 - 2:d] (puzzle: Exclusion 6) |  | 217 nM |  |  |  | 
28 | GCUGGGUCAGGAUAUACAGGGUCGAAAGAUCUGUGAUACCUACAUGAGGAUCACCCAUGUAGAAGGGACUGGGC [ChP 11-04-2015 #10] (puzzle: Exclusion 2) |  | 14.2 nM |  |  |  | 
29 | UAAUGCAAGUAAAGAUCCUACAUGAGGAUCACCCAUGUGCUCGUCUUAUAAAGUACUAUCACGAAAGUGAUAGUACA [Mat - Sensor v3 - turn-off var 1 - Eli Mod - D83] (puzzle: Sensor v3, turn-off variant 1) | 385 nM | 31.8 nM | 167 nM |  |  | 
30 | UCGGCGCGAGGAUAUGCGGUUUGUGCUUUGGGCCCUGGCGUACAUGAGGAUCACCCAUGUAGAAGGCGCGUUGC [Apr-15 SS2-48] (puzzle: Exclusion 2) |  | 17.1 nM |  |  |  | 
31 | AAAAGUUUUCAGGAUAUGUGCGAUUAAUAUCGUGCAGAAGGGAGGACAUGAGGAUCACCCAUGUUGAAGACAAC [Omei Ex6 A18] (Eterna round: R97, puzzle: Exclusion 6) |  |  |  | 66.1 nM | 80.2 nM | 
32 | GAAAAUGUGGAGGAUAUCGACUUCGAAAGAAGUCGAGAAGGCCACACAUGAGGAUCACCCAUGUGAUGCCAAUA [Omei Ex6 H9] (Eterna round: R97, puzzle: Exclusion 6) |  |  |  | 443 nM | 284 nM | 
33 | AGUAGGUCUACCUUGGUGGAUCUGCAUUUUUGCAGGUGUACAUGAGGAUCACCCAUGUCCUCAUUUGCUCGUCUUAU [JL turnoff v2 99.30] (Eterna round: R96, puzzle: Sensor v3, turn-off variant 2) |  |  |  | 555 nM | 508 nM | 599 nM
34 | UGAUUGAUUAACAGAUUAUACAUGAGGAUCACCCAUGUAGGUCCUACGUGCACUUUAUGCAGCUCGUCUUAUUCCCA [Sensor-V1 #71] (Eterna round: R97, puzzle: Sensor, turn-off variant 1) |  |  |  | 34.4 nM | 36.5 nM | 
